Where a chain is given by its changes, count along the chain named.
B1: AB001472 (antibody, V domains shown)
VH: QVQLVESGGGVVQPGRSLRLSCAASGFTFSSYGMHWVRQAPGKGLEWVAVIWYDGSNKYYADSVKGRFTISRDNSQNTLFLQMNSLRAEDTAVYYCARVGEYSSSPDWGAAFDIWGQGTMVTVSS
VL: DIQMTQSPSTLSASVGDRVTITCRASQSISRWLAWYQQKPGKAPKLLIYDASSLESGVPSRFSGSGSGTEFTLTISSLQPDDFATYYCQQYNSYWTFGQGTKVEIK
B2: AB-000391 (antibody, V domains shown)
VH: EVQLVQSGGGLVQPGGSLRLSCVASGFTLSSYEMNWVRQAPGKGLEWVSFISSSGSKKRYADSVKGRFTVSRDNAKNSLSLQMNSLRAEDTAVYYCARDHSTSDREYGLDVWGQGATVTVSS
VL: DVVMTQSPLSLPVTLGQPASISCRSGQSLLYSDGNTYLYWFQQRPGQSPRRLIYKVSNRDPGVPERFSGSGSGTDFTLKISRVEAEDVGIYFCLQGTHWPYTFGRGTKLEIK
B3: AB-000231 (antibody, V domains shown)
VH: QVHLVESGGGVVQPGRSLRLSCAASGFTFRNYGIHWVRQAPGKGLEWVAVIWYDGSREFYADSVEGRFTVSRDNSKNTVFLQMNSLRVDDTAVYYCARAGYSDTSGYGDHWGQGTLVSVSS
VL: QSVLTQPPSVSGAPGQRVTISCTGGSSNIGAGYDVHWYQQLPGTAPKLLISHNNNRPSGVPDRFSGSKSGTSASLVIAGLQAEDEADYYCQSYDRRLSSSWVFGGGTRLTVLS
B4: AB001578 (antibody, V domains shown)
VH: QVQLVESGGGVVQPGRSLRLSCAASGFSFSNYGMHWVRQAPGKGLEWVAIIWYDGSNKYYADSVKGRFTISRDNSKNTLYLQMNSLRAEDTAVYYCARDGTIWDDSRGYILDYWGQGTLVTVSS
VL: EIVLTQSPATLSLSPGERATLSCRASQGVSSYLAWYQQKPGQAPRLLIYDASNRATGIPARFSGSGSGTDFTLTISSLEPEDFAVYYCQQRSNWPPTFGPGTKVDIK
B5: AB001533 (antibody, V domains shown)
VH: QVQLVESGGGVVQPGRSLRLSCAASGFTFNSYGMHWVRQAPGKGLEWVALISFDGTNKFYADSVKGRFTISRDNSKNTLYLQMNSLRAEDTALYHCATDSLFYYDFHLFDYWGQGTLVTVSS
VL: DIVLTQTPLSSPVTLGQPASISCRSSQSLVYSDGNTYLNWLQQRPGQPPRLLIYKISNRFSGVPDRFSGSGAGTDFTLKISRVEAEDVGVYYCMQATQLYTFGQGTKLEIK
B6: AB001455 (antibody, V domains shown)
VH: QVQLVESGGGVVQPGRSLRLSCAASGFTFSNYGMHWVRQAPGKGLEWVAIIWYDGSSKYYADSVRGRFTISRDNSKNTLFLQMNSLRAEDTAVYYCARDDYYSSAYNHLGYWGQGTLVTVSS
VL: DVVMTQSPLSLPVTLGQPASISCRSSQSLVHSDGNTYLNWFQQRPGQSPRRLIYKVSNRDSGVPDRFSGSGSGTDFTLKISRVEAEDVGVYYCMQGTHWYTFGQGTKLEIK
B7: AB-000338 LS (antibody, V domains shown)
VH: QVQLVESGGGVVQPGRSLRLSCAASGFSFSTYGMHWIRQVPGKGLEWVAIIWHDGSKEFYADSVKGRFTISRDNSKKKLYLQMNSLRAEDTAIYYCVKDDFDSSGHSYFHYWGQGTLVTVSS
VL: GVVMTQSPLSLPVTLGQPASISCRSSQSLVHSDGNTYVHWFQQRPGQSPRRLIYKVSNRDSGVPDRFSGSGSGTDFTLKISRVEAEDVGVYYCMQGTQWWTFGQGTKVEIK
B8: AB-000373 (antibody, V domains shown)
VH: QVLLVESGGGVVQPGGSLRLSCTASGFTFKNYGMHWVRQAPGKGLEWVAVIWFDGSNEFYADSVEGRFTISRDNSKNTLYLQTNSLRAEDTAVYYCARSYTSSWLGFDFWGQGTLVTVSS
VL: DAVMTQTPLSLSVTPGQPASISCKSGQSLLHSDGKTYLYWYLQKPGQSPQLLIYEVSSRFSGVPDRFSGSGSGTDFTLKISRVEAEDVGVYYCMRGIHPRTFGQGTKVEIK
B9: AB-000376 (antibody, V domains shown)
VH: QVQLVESGGGVVQPGRSLRLSCTASGFTFSNYGMHWVRQAPGRALEWVAIIWHDGSNKYYADSVKGRFTISRDNSKNTLYLQMNNVRVEDTAVYHCAKVGGFGELYEAFDFWGQGTLVTVSS
VL: DIQMTQSPSTLSASVGDRVTITCRASHSISNWLAWYQQKPGKAPRLLIYKASSLNSGVPSRFSGSASGTEFTLTISSLQPDDFATYFCQQYNAYWTFGQGTKVEIK
B10: AB001396 (antibody, V domains shown)
VH: QVQLVESGGGVVQPGRSLRLSCAASGFTFSSYGMHWVRQAPGKGLEWVAIIWYDGSHKYYADSVKGRFTISRDNSKNTLYLQMNSLRAEDTAVYHCARVYQPTYYYDSSRGEAFDIWGQGTMVTVSS
VL: B9 VL with H27Q, N31S, R45K, S53N, N55G, A66G, F87Y, A93S
B11: AB001529 (antibody, V domains shown)
VH: QVQLVESGGGVVQPGRSLRLSCVASGFSFRSYGMHWVRQAPGKGLEWVAIIWYDGSNKYYAHSVKGRFTISRDNSKNTLYLQMNSLRAEDTAIYYCAKDGGTETTWGNAFDIWGQGTMVTVSS
VL: B9 VL with H27Q, N31S, R45K, N55E, A66G, S76N, S77N, F87Y, A93S
B12: AB001428 (antibody, V domains shown)
VH: QVQLVESGGGVVQPGRSLRLSCVVSGFTFSSYGMHWVRQAPGKGLEWVAIIWYDGSKKYYADSVKGRFTISRDNSKNTLYLQMNSLRAEDTAVYYCARPGDSSGSHGEAFDIWGQGTMVTVSS
VL: B9 VL with A25P, H27Q, R45K, N55E, A66G, S77G, F87Y, A93T
B13: AB001458 (antibody, V domains shown)
VH: EVQLVESGGGLVQPGRSLRLSCTASGFTFGDYAMSWFRQAPGKGLEWVSFIRSKTYGGSTEYAASVKGRFTISRDDSKSIAYLQMHSLKTEDTAFYYCTRVSAAAGVGDYWGQGTLVTVSS
VL: EIVMTQSPATLSVSPGERATLSCRASQSVGSNLAWYQQKPGQAPRLLIYGASTRATGLPARFSGSGSATEFTLTISSLQSEDFAVYYCQQYNTWWTFGQGTKVEIK
B14: AB-000325 (antibody, V domains shown)
VH: QVQLVESGGGVVQPGRSLRLSCAASRFPFKNYGMHWVRQAPGKGLEWVALIWFDGSNKFYVDSVEGRFTISRDNSNNMLYLEMNSLRADDTAVYYCARAGRYDDSGYLDYWGQGTLVTVSS
VL: B13 VL with N32K, Q38H, L58I, A68G, I75V, T93H, W95Y, V103L
B15: AB001558 (antibody, V domains shown)
VH: QVQLVESGGGVVQPGRSLRLSCAASGFTFSSYGMHWVRQAPGKGLEWVAVIWYDGNNKYYVDSVKGRFTISRDNSKNTLYLQMNSLRAEDTAVYYCARDHDADYVEKWGAFDLWGQGTMVTVSS
VL: B13 VL with G30S, T53A, L58I, A68G, T93N, W94G, W95R, K106T
B16: AB-000327 (antibody, V domains shown)
VH: QVQLVESGGGVVQPGRSLRLSCAASRFTFKNYGMHWVRQGPGKGLEWVAVIWYDGSQEYYVDSVRGRFTISRDNSKDTLYLQMNSLRAEDTAVYYCVRDGRYRTSHQTSTGFFDLWGQGTLVTVSS
VL: QSMLTQPPSVSGAPGQRVTISCTGSSSNIGADYDVHWYQQLPGTAPKLLIYGNNNRPSGVPDRFSGSKSGTSASLAITGLQPEDEAEYYCQSYDSSLSGSFVFGTGTKVTVL
B17: AB001554 (antibody, V domains shown)
VH: QVQLVESGGGVVQPGRSLRLSCAASGFTFSSYGMHWVRQAPGKGLEWVAVIWYDGSNKYHADSVKGRFTISRDNSKNTLYLQMNNLRSEDTAVYYCAKDETLWFGELSDGFDIWGQGTMVTVSS
VL: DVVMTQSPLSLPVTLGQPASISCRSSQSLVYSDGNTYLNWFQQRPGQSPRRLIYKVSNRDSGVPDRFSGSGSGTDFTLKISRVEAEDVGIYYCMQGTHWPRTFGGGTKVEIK
B18: AB001511 (antibody, V domains shown)
VH: QVQLVESGGGVVQPGRSLRLSCAASGFTFSSYGMHWVRQAPGKGLEWVAIIWYDGSNKYYADSVKGRFTISRDNSKNTLYLQMNSLRAEDTAVYYCARDTDDYYDAHTMDVWGQGTTVTVSS
VL: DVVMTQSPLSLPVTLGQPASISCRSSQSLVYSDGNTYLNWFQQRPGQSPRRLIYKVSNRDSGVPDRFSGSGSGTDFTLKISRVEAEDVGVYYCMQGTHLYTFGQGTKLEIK
B19: AB-000394 (antibody, V domains shown)
VH: QAQPVESGGGVVQPGKSLRLSCAASGFTFRNFGMHWVRQAPGKGLEWVAVIWHDGSNQFYADSVEGRFTISRDNSKNTLYLQMDSLRVEDTAMYYCARDRGYSGSWGYFDHWGQGTLVTVSS
VL: EIVLTQSPATLSLSPGERATLSCRASQSISDYLAWYQQKPGQAPRLLIYDASFRATGIPARFSGSGSGTDFTLTISSLEPEDFAVYYCQQRSIGFTFGPGTKVDIK
B20: AB-001545 (antibody, V domains shown)
VH: QVQLVESGGGVVQPGRSLRLSCAASGFTFSSYGMHWVRQAPGKGLEWVAVIWYDGSNKYYADSVKGRFTISRDNSKNTLYLQMNSLRAEDTAVYYCARDLDYSNHNWFDPWGQGTLVTVSS
VL: B19 VL with I29V, D31S, F53N, I93N, G94W, P99Q, K102R, V103L, D104E

Biological target: T1, recombinant Plasmodium falciparum circumsporozoite protein (CSP) (Plasmodium falciparum, UniProt Q7K740 21-375)
T1 construct: also called recombinant CSP
Assay: SPR, recombinant CSP

T1 sequence (Q7K740 21-375 limits assumed): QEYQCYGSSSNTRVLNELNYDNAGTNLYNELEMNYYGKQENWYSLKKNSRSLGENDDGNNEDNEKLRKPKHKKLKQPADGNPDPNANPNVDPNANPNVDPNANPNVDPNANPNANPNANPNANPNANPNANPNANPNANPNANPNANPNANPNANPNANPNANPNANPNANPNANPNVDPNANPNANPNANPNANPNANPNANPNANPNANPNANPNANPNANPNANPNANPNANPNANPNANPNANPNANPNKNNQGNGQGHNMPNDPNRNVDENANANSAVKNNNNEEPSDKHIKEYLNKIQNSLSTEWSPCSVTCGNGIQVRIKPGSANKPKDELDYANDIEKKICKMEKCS

Row | Binder | Kd | koff | kon
1 | B1 | 2.11 nM | 0.000518 s⁻¹ | 246000 M⁻¹ s⁻¹
2 | B2 | 0.616 nM | 0.000535 s⁻¹ | 869000 M⁻¹ s⁻¹
3 | B3 | 0.328 nM | 0.00142 s⁻¹ | 4.34e+06 M⁻¹ s⁻¹
4 | B4 | 2.64 nM | 0.000977 s⁻¹ | 369000 M⁻¹ s⁻¹
5 | B5 | 0.248 nM | 0.000669 s⁻¹ | 2.69e+06 M⁻¹ s⁻¹
6 | B6 | 1.37 nM | 0.000831 s⁻¹ | 608000 M⁻¹ s⁻¹
7 | B7 | 0.13 nM | 0.00147 s⁻¹ | 1.13e+07 M⁻¹ s⁻¹
8 | B8 | 0.0592 nM | 0.00152 s⁻¹ | 2.58e+07 M⁻¹ s⁻¹
9 | B9 | 0.201 nM | 0.000866 s⁻¹ | 4.31e+06 M⁻¹ s⁻¹
10 | B10 | 1.47 nM | 0.000393 s⁻¹ | 268000 M⁻¹ s⁻¹
11 | B11 | 1.64 nM | 0.00108 s⁻¹ | 660000 M⁻¹ s⁻¹
12 | B12 | 1.18 nM | 0.00101 s⁻¹ | 855000 M⁻¹ s⁻¹
13 | B13 | 0.921 nM | 0.00171 s⁻¹ | 1.86e+06 M⁻¹ s⁻¹
14 | B14 | 0.0529 nM | 0.00215 s⁻¹ | 4.07e+07 M⁻¹ s⁻¹
15 | B15 | 40.2 nM | 0.000797 s⁻¹ | 19800 M⁻¹ s⁻¹
16 | B16 | 0.467 nM | 0.00143 s⁻¹ | 3.06e+06 M⁻¹ s⁻¹
17 | B17 | 2.29 nM | 0.000716 s⁻¹ | 313000 M⁻¹ s⁻¹
18 | B18 | 2.03 nM | 0.000525 s⁻¹ | 259000 M⁻¹ s⁻¹
19 | B19 | 0.105 nM | 0.00156 s⁻¹ | 1.48e+07 M⁻¹ s⁻¹
20 | B20 | 4.96 nM | 0.000442 s⁻¹ | 89000 M⁻¹ s⁻¹

Biological target: T1, recombinant Plasmodium falciparum …
Assay: binding affinity column of the in vivo table (SPR, CSP)

Row | Binder | Kd
21 | B1 | 2.11 nM
22 | B5 | 0.248 nM
23 | B6 | 1.37 nM
24 | B7 | 0.13 nM
25 | B8 | 0.0592 nM
26 | B12 | 1.18 nM
27 | B13 | 0.921 nM
28 | B16 | 0.467 nM
29 | B19 | 0.105 nM
